The results in this text go back to the nanobody polyreactivity screen of Harvey et al. (2022).

The series can be described thus: yeast display, Sf9 membrane polyspecificity reagent, FACS + sequencing; frameworks hold sequencing errors. Summed up: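 In a synthetic yeast display library (Saccharomyces cerevisiae BJ5465), nanobody expression was induced with galactose for 36–48 hours. FACS gates were set low and high (top ~1%) using anti-HA fluorescence for expression and streptavidin fluorescence for binding of the Sf9 membrane reagent. Each polyreactivity label is drawn from the gate of origin.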
As to “HVQLVEAGGGLVQAGGSLRLSCAASGSTLQYYAMGWYRQAPGKERELVAAITSTGSRTYYADSVKGRFTISRDNAKNTVYLLMNSLKPADTAVYYCAADIYDGEYDYWGQGTQVTVSS”, the “polyreactivity (PSR sort gate)” value was “high polyreactivity”.
Regarding “HVQLVESAGGLFQEGGSLRVSCAASGGTLNTYAMGRYRQAPGKDREFVSAITTSGASTYYADSVKGRFTISRDNAKNTVYLQMNSLKPEDSAVYYCYCDYWGQGTQVTVSS”, the “polyreactivity (PSR sort gate)” value is listed as “low polyreactivity”.
As for “HVQLVESAGGLVQAGGSLRLSCAASGSILPRYAKGWYRQAPGKERELVAAISWSGGNTYYADSVKGRFTISRDNAKNTVYFQMNSLTPEDTAVSYSAARQYDWVIQGSRVRPVHYDYWGQGTQVNVSS”, the entry is “high polyreactivity”; as for “HVQLVESGAGLVQAGGSLRLSCAASGSTLRYYAMGWYRQAPGKERELVAAISTVGSTYYADSVKCRFTISRDNAKNTVNLQMNILKPEDTAVYYCAAEPWANTPGDAGSPFDYWGQGTQVTVSS”, “low polyreactivity”; as for “HVQLVESGGCLFQAGGSLRLSCAASGRIFPGYAMGWYRQAPGKERELFAAINTSGGRTYYADSVKGRFTISGENAKNTVYLQMNSLKPEDTAVSYCAAVYRSRYDYWGQGTQVTVSS”, “high polyreactivity”.
Consider “HVQLVESGGGLFQAGGRLRVSCAASGNTIWGNAMGGSRQAPGKEREVVAAITGGGDTNYADSVKGRFTISRDNAKNTVYLQMNSLKPEDTAVYYCAADSSEWLLKDDYWGQGTQVTVSS”, for which the “polyreactivity (PSR sort gate)” value is given as “low polyreactivity”.
Under “HVQLVESGGGLVQAGGRLRLSCAASGRNFVENAIGWYRQAPGKEWEFVAAISGGGSTDYADSVKGRFTISRDNAKNTVYLQMNSLKPEDTAVYYCNARQVFTTAGREMDYWGQGTQVTVSS” stands “low polyreactivity”; under “HVQLVESGGGLVQAGGSHRLICASSGFTIYYAIAWYRQAPGKESELVASISANGGSTYYADSVKGRFTISRDNAKNTVYLQMNSLKPEDTAVYYCAARGLSGQRRYYWGQGTQVTVSS”, “high polyreactivity”.
Under “HVQLVESGGGLVQAGGSLRIICAASVRIFYLYAMGWYRRAPGKERELVATINSGGSTKYADSVKGRFTISRDNAKNSVYLQRNSLKPEDTAVYYCNAKRWKDYYPYQSWKYGYWGQGTQVTVSS” stands “high polyreactivity”.
As for “HVQLVESGGGLVQAGGSLRISCAASGRTFYSYVMGWYRQAPGKQRQLVAAISSGGGRTYYADSVKGRFTISRDNAKHTVYLQMNSLKPEDTAVYYCNAVTRGTRWGLPYEYWGQGTQVTVSS”, the entry is “high polyreactivity”.
As for “HVQLVESGGGLVQAGGSLRLICAASVRIFADNAMGWYRQAPGKERELSAAISESGGSTYYADSVKGRFTISRDNAKNTVYLEMNSLKPEDTAVYYCAATAEVHRAEPYDYWGQGTQVTVSS”, the “polyreactivity (PSR sort gate)” value is listed as “low polyreactivity”.
With “HVQLVESGGGLVQAGGSLRLSCAASGFIFRKYAMGWYRQAPGKERELVAAISGRADSTYYADSVKGRFTISRDNAKNTVYLEMISLKPEDTAVYYCAADWLSKIGKGYDYWGQGTQVTVSS”, the “polyreactivity (PSR sort gate)” value is “high polyreactivity”.
As for “HVQLVESGGGLVQAGGSLRLSCAASGFSFDPYAMGWYRQAPGKERELVAAISDGGSTNYPDSVKGRFTISRDNAKNTVYLQRNSLKPEDTAVYYCAVEYWYVRGTFDDWGQGTQVTVSS”, the “polyreactivity (PSR sort gate)” value was “low polyreactivity”.
As to “HVQLVESGGGLVQAGGSLRLSCAASGFTFRLYAMGWYRQAPGKERELVAAINWGGGSTRYADSVKGRFTISRDNAKNTVYLQMNSLKPEDTAVYYCAARRFAYYFQYLGGGYWGQGTQVTVSS”, the “polyreactivity (PSR sort gate)” value was “high polyreactivity”.
Consider “HVQLVESGGGLVQAGGSLRLSCAASGLIFDWYAMGWYRQAPGKERELVADISYSGGSTNYADSVKGRFTISRDNAKNTVYLQMNSLKPEDTAVYYCAVDYYYPTLTIGYYYWGQGTQVTVSS”, for which the “polyreactivity (PSR sort gate)” value is given as “low polyreactivity”.
Under “HVQLVESGGGLVQAGGSLRLSCAASGRIFAPYDMGWYRPAPGNERELVAAISRSGGSTYYADSVKGRFTSSRDNAKNTVYLQMNSLKPEDTAVYYCAASYPGRYWLYRYEYWGQGTQVTVSS” stands “high polyreactivity”.
As for “HVQLVESGGGLVQAGGSLRLSCAASGRIFFRYAMGWYRQAPGKERELVAAISYSGGSTYYADSVKGRFTISRDNAKNTVYLQMNSLKPEDTAVYYCAAPLLRDLRSPYSYNYWGQGTQVTVSS”, the “polyreactivity (PSR sort gate)” value was “low polyreactivity”.
For “HVQLVESGGGLVQAGGSLRLSCAASGRIFGVYVMGWYRPAPGKERELVAGISPSGGSTYYADSVKGRFTISRDNAKNTVYLQMNSLKPEDTAVYYCAAVLRIRRPRYGYWGQGTQVTVSS”, the “polyreactivity (PSR sort gate)” value is on record as “high polyreactivity”.
As to “HVQLVESGGGLVQAGGSLRLSCAASGRIFNDYSMGWYRQAPGKERELVAAIRRRGDRTYYADSVKGRFTISRDNAKNTVYLQMNSLKPEDTAVYYCAKSQSAKGGYDYWGQGTQVTVSS”, the “polyreactivity (PSR sort gate)” value is listed as “high polyreactivity”.
For the sequence “HVQLVESGGGLVQAGGSLRLSCAASGRIFWRYAMGWYRQAPGKEREFVADITYSGGSTYYADSVKGRFTISRDNAKNTVYLQMNSLKPEDTAVYYCAAGWVRPWATYKLDYWGQGTQVTVSS”, the “polyreactivity (PSR sort gate)” value was “high polyreactivity”.
As for “HVQLVESGGGLVQAGGSLRLSCAASGRTLGSYAIGWYRQAPGKARELVAAISGGSTNYADSVKGRFTISRDNAKNTVYLQMNRLKPEDTAVYYCAADPYGYLYDSWGQGTQVTVSS”, the entry is “low polyreactivity”; as for “HVQLVESGGGLVQAGGSLRLSCAASGSIFEYYAMGWYRQAPGKERELVASISRGTSTNYADSVKGRFTISRDNAKNTVYLQMNSLKPEDTAVYYCNADGWTVVLDTYGSWGQGTQVTVSS”, “low polyreactivity”.
Consider “HVQLVESGGGLVQAGGSLRLSCAASGSIFLHNTMGWYRQAPGKERELVAVISKRGGSTYYADSVKGRFTISRDNAKNTVYLQMNCLKPEDTAVYYCNKTRSAGHPGVDGSPYYYWGQGTQVTVSS”, for which the “polyreactivity (PSR sort gate)” value is “high polyreactivity”.
“HVQLVESGGGLVQAGGSLRLSCAASGSISHLYTMRWYRQAPGKERELVAAIRYSGGRTDYADSVKGRFTISRDNAKNTVYLQMNSLKPEDTAVYYCAATQLRRWYYHYGLDYWGQGTQVTVSS”: the “polyreactivity (PSR sort gate)” value is recorded as “high polyreactivity”.
“HVQLVESGGGLVQAGGSLRLSCAASGSTFGENAMGWYRQAPGKERELVAAITWGTNTYYADSVKGRFTISRDNAKNTVYLQMNSLKPEDTAVYYCAAQFQTRGWRYVYWGQGTQVSVSS”: the “polyreactivity (PSR sort gate)” value is recorded as “low polyreactivity”.
Under “HVQLVESGGGLVQAGGSLRLSCAASGSTFTLNVMGWYRQAPGKERELVAGISKRGGNTYYADSVKGRFTISRDNAKNTVYLQMNSLKPEDTAVYYCATYSRIFKWEYYYWGQGTQVTVSS” stands “high polyreactivity”; under “HVQLVESGGGLVQAGGSLRLSCAASGSTFTRYVMGWYRQAPGKERELVAAISSGVSTYYADSVKGRFTISRDNAKNSVYLQMNSLKPEDTAVYYCDANRYRAREYKYWGQGTQVTVSS”, “high polyreactivity”.
For the sequence “HVQLVESGGGLVQAGGSLRLSFAASGRIFTHNAMGLYRKAPGKERELVAAITSGGRTTYADSVKGRFTISRDNAKNTVYLQMNSLKPEDTAVYYCNADTGLGSLDFDKRDYWGQGTQVTVSS”, the “polyreactivity (PSR sort gate)” value is recorded as “low polyreactivity”.
Under “HVQLVESGGGLVQARGSLRLSCAASGSTFYAYDRGWYRQAPGKERELVAAISSTGGRTDYADSVKGRFTISRDNSKNTVYLQMNSLKPEDTAVYYCAARQLSSHYDYWGQGTQGTVSS” stands “low polyreactivity”; under “HVQLVESGRGLFQAGGSLRLSCAASGFIFQYYAMGWYRQAPGKERELVAAISFGGSTYYADSVKGRFTISRDNAKNTVYLQMNSLKPEDTAVYYCAGDYYSWYGYDYWGQCTQVTVSS”, “low polyreactivity”.
In the case of “HVQLVESVGGLVQAGGSLRLSCAASGSTFFYNAMAWYRQAPGKERELVAAITVTGNSTYYADSVKGRFTISRDNAKNTVYLQMNSLKPEDTAVYYCNTSLKRRRLRFNYWGQGTQVTVSS”, the “polyreactivity (PSR sort gate)” value is recorded as “low polyreactivity”.
As for “HVQLVETGGGLVQAGGSLRLSCAASGRTFDSYTMGWYRQAPGKERELVADITFTGGSTYYADSVKGRFTISRDNAKNTVYLQMNSLKPEATAVYYCNADREYKWYFRYDYWGQGTQVTVSS”, the entry is “low polyreactivity”.
In the case of “HVQLVQSGGGLVQAGGSLRLSCAASVYTFVYYAIGWYRQATGKERELVAAITSRAGRTYYADSVKGRFTISRDNAKNTVYLQMNSLKPEDTAVYYCNAASTKITRFDYWGQGTQVTVSS”, the “polyreactivity (PSR sort gate)” value is “high polyreactivity”.
As for “IILPGGRILLSCAASGRTFSGYGLGWYRQAPVKERELIADITSGGSTYYADSVKGRFTISRDNAKNTVYLQMNILIPVDTAVYYCAAERQIRSFWSSRTYEFGYWGQGTQVNVSS”, the entry is “low polyreactivity”; as for “KGQLVESGGGLVQAGGSLRLSCAASGSIFGENAMGWYRQAPGKERELVAAITSSGSTYYADSVKGRFTISRANAKNTVYLQMNSLKPEDTAVYYCAKVSVLRMDYWGQGTQVTVSS”, “low polyreactivity”; as for “KLQLVESGGGLVQAGGSLRLSCADSGRIFQGNAMGWYRQAPGKERELVAAITYSGRSTFYADSVKGRFTISRDNAKNTVYLQMNRLKPEDTAFYYCAARQYWTTDLPFQRYYYWGQGTQVTVSS”, “low polyreactivity”.
As for “KVLLVESGGGLVQAGGSLRLSCAASGSIFHGNAMGWYRQAPGKERELVATISSGGSTYYADSVKGLFTISRDNAKNTVDLQMNSLKPEDTAVYYCAAERFWPYKSYYWGQGTQVTVSS”, the “polyreactivity (PSR sort gate)” value is “low polyreactivity”.
Under “KVQIVESGGGLVQAGGSLRLSCAASGRTFVVNGMGRYRQAPGKDRELVAAINTSGGSTHYADSVKGRITISRDNAKNTVYLQMNILKPEDTAVYYCAAVGYWRDYSGYWDYYYIYDYWGQGTQVNVSS” stands “low polyreactivity”; under “KVQLEESGGGLVQSGGILRLSCAASGSTLWSNTMGWYRQEQGKERELVDAISSGGGSTYADSVKGRFTISRDNAKNTVYLQMNSLKPEDTAVFYCAASAYYYRHSSWHRSDYWGQGTQVTVSS”, “high polyreactivity”.
Under “KVQLVESGGGLVQAGGSLLLSCAASVSNYTLNAMGWYRQAPGKERVLVAAISLSGGSTYYADSVKGRFTISRDNAKNTVYLQMNSLKPEDTAVYYCNTPPSRYVRYGIYRYDYWGQGTQVTVSS” stands “high polyreactivity”.
Regarding “KVQLVESGGGLVQAGGSLRISCAASGGIFAYNAMGWYRQAPGKEMELVASITSGGNTYYADSVKGRFTISRDNAKNTFYLQMNSLKPEDTAVYYCNARFYRSWRRYSREPGYNYWGQGTQVTVSS”, the “polyreactivity (PSR sort gate)” value is recorded as “high polyreactivity”.
